Laboratory results from the nanobody polyreactivity screen of Harvey et al. (2022).

Test: yeast display, Sf9 membrane polyspecificity reagent, FACS + sequencing; frameworks hold sequencing errors
How it was run: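 Using colony PCR, genes from sorted yeast display clones were amplified, then sequenced on MiSeq at 2 × 250 and filtered by CDR length. The clones had been stained with 10% biotinylated, detergent-solubilized Sf9 membrane reagent for 1 hour at 4 °C and sorted by FACS into low and high (top ~1%) gates on anti-HA and streptavidin fluorescence. Polyreactivity labels come from the gate of origin.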

Q: For “QVQLVESGGGLVQAGGSLRLSCAASGSTFLDNAMGWYRQAPGKERELVAVITASDTNTNYADSVKGRFTISRDNAKNTVYLQMNRLKPEDTAVYYCNADATYTSYDYWGQGTQVTVSS”, which “polyreactivity (PSR sort gate)” value is on record?
A: low polyreactivity

Q: For “QVQLVESGGGLVQAGGSLRLSCAASGSTFLGNAMGWYRQAPGKERELVATITGSSGSTYYADSVKGRFTISRDNAKNTVYLQMNSLKPEDTAVYYCNTVYNYWDGYDYWGQGSQVTVSS”, which “polyreactivity (PSR sort gate)” value is on record?
A: low polyreactivity

Q: With “QVQLVESGGGLVQAGGSLRLSCAASGSTFLGYAMGWYRQAPGKERELVAAITYSGGGTYYADSVKGRFTISRDNAKNTVYLQMNSLKPEDTAVYYCNADVSWSYSVYREYGMDYWGQGTQVTVSS” as the sequence, how does the “polyreactivity (PSR sort gate)” value read?
A: low polyreactivity

Q: Which “polyreactivity (PSR sort gate)” value does the source give for “QVQLVESGGGLVQAGGSLRLSCAASGSTFLGYTMGWYRQAPGKERELVASITNSGSTDYADSVKGRFTISRDNAKNTVYLHMNSLKPEDTAVYYCAAQFYRYPSKNDYWGQGTQVTVSS” here?
A: high polyreactivity

Q: With “QVQLVESGGGLVQAGGSLRLSCAASGSTFLINAMGWYRQAPRKERELVATISSGGSTYYADSVKGRFTISRDNAKNTVYLQMNSLKPEDTAVYSCAADPDRTAYDYWGQGTQVTVSS” as the sequence, how does the “polyreactivity (PSR sort gate)” value read?
A: low polyreactivity

Q: Which “polyreactivity (PSR sort gate)” value does the source give for “QVQLVESGGGLVQAGGSLRLSCAASGSTFLKYTMGWYRQAPRKDRELVAGITRSSRSTYYADSVKGRFTISRDNAKYTVYLQMNSLKPEDTAVYYCAATVYLYTDLAYYWFGYWGQGTQVTVAS” here?
A: high polyreactivity

Q: For “QVQLVESGGGLVQAGGSLRLSCAASGSTFLLNAMGWYRQAPGKERELVAAITWNGGSTYYADSVKGRFTISRDNAKNTVYLQMNSLKPEDTAVYYCAADWSWQWRYGYDYWGQGTQVTVSS”, which “polyreactivity (PSR sort gate)” value is on record?
A: low polyreactivity

Q: With “QVQLVESGGGLVQAGGSLRLSCAASGSTFLNNAMGWYRQAPGKERELVASIRYSSARTYYADTVKGRFTISRDNAKNTVYLQMNSLKPEDTAVYYCAADRWVGYRVYKYDYWGQGTQVTVSS” as the sequence, how does the “polyreactivity (PSR sort gate)” value read?
A: high polyreactivity

Q: Which “polyreactivity (PSR sort gate)” value does the source give for “QVQLVESGGGLVQAGGSLRLSCAASGSTFLPNAMGWYRQAPGKERELVATITFDGGSTYYADSVKGRFTISRDNAKNTVYLQMNSLKPEDTAVYYCNTVELYWRGYDYWGQGTQVTVSS” here?
A: high polyreactivity

Q: For “QVQLVESGGGLVQAGGSLRLSCAASGSTFLRYAMGWARQAPGKERELVARISGGGTTYYADSVKGRFTISRDNAKNTVYLQMNSLKPEDTAVYYCAARAIYWSRYDYWGQGTQVTVSS”, which “polyreactivity (PSR sort gate)” value is on record?
A: high polyreactivity

Q: For “QVQLVESGGGLVQAGGSLRLSCAASGSTFLSYAMGWYRQAPGHERELVAAISIAGSTYYADSVKGRFTISRANAKNTVYLQMHSLKPEDTAVDYCRRYYRIYDYWGQGTQVTVSS”, which “polyreactivity (PSR sort gate)” value is on record?
A: low polyreactivity

Q: Which “polyreactivity (PSR sort gate)” value does the source give for “QVQLVESGGGLVQAGGSLRLSCAASGSTFLSYAMGWYRQAPGKERELVAAISWSGGRTYYADSVKGRFTISRDNAKNTVYLQMNSLKPEDTAVYYCAARHVPFTKHEYEYWGQGTQVTVSS” here?
A: low polyreactivity

Q: For “QVQLVESGGGLVQAGGSLRLSCAASGSTFLTNAMGWYRQAPGKERELVAAIRTSGGSTYYADSVKGRFTISRDNAKNTVYLQMNSLKPEDTAVYYCAASYRRRRFSEYYYWGQGTQVTVSS”, which “polyreactivity (PSR sort gate)” value is on record?
A: high polyreactivity

Q: Which “polyreactivity (PSR sort gate)” value does the source give for “QVQLVESGGGLVQAGGSLRLSCAASGSTFLTYAMGWYRQAPGKERELVAAISIAGSTYYADSVKGRFTISRDNAKNTVYLQMNSLKPEDTAVYYCAADIFERGPVPDRHNGYDYWRQGTQVTVSS” here?
A: low polyreactivity

Q: For “QVQLVESGGGLVQAGGSLRLSCAASGSTFLVYAMGWYRQAPGKERELVARINWRGSSTYADSVKGRFTISRDNAKNTVYLQMNSLKPEDTAVYYCNADSYRYYHPTYIYDYWGQGTQVTVSS”, which “polyreactivity (PSR sort gate)” value is on record?
A: low polyreactivity

Q: With “QVQLVESGGGLVQAGGSLRLSCAASGSTFLWYAMGWYRQAPGKERELVATISGSGGSTYYADSVKGRFTISRDNAKNTVYLQMNSLKPEDTAVYYCARDTLGGTSLGDYWGQGTQVTVSS” as the sequence, how does the “polyreactivity (PSR sort gate)” value read?
A: high polyreactivity

Q: For “QVQLVESGGGLVQAGGSLRLSCAASGSTFLWYTIGWYRQAPGKERELVADISSGGTTYYADSVKGRFTISPDNAKNTVYFQMNSLKPEDTAVYFCAKTRWPYDRWKYAFGYWGQGTQVTVSS”, which “polyreactivity (PSR sort gate)” value is on record?
A: high polyreactivity

Q: For “QVQLVESGGGLVQAGGSLRLSCAASGSTFLYYAMGWSRQAPGKEMELVAAISGSGGSTYYADSVKGRFTISRDNAKNTVYLQMNSLKPEDTAVYYCNAVARRHGLGPYDYWGQGTQVTVSS”, which “polyreactivity (PSR sort gate)” value is on record?
A: high polyreactivity

Q: With “QVQLVESGGGLVQAGGSLRLSCAASGSTFLYYAMGWYRQAPGKERELVAAITWSGGRTYYADSVKGRFTISRDNAKNTVYLQMNSLKPEVTAVYYCNKAYPWLRSTALNPGLYDYWGQGTQVTVSS” as the sequence, how does the “polyreactivity (PSR sort gate)” value read?
A: high polyreactivity

Q: For “QVQLVESGGGLVQAGGSLRLSCAASGSTFLYYAMGWYRQAPGKERELVARITTRVGRTYYADSVKGRFTISRDNAKNTVYLQMNSLKPEDTAVYYCAAYPDYSYYYWGQGTQVTVSS”, which “polyreactivity (PSR sort gate)” value is on record?
A: high polyreactivity

Q: Which “polyreactivity (PSR sort gate)” value does the source give for “QVQLVESGGGLVQAGGSLRLSCAASGSTFLYYAMGWYRQAPGKERELVARITTRVGRTYYADSVKGRFTISRDNAKNTVYLQMNSLNPEDTAVYYCAAYPDYSYYYWGQGTQVTVSS” here?
A: high polyreactivity

Q: Which “polyreactivity (PSR sort gate)” value does the source give for “QVQLVESGGGLVQAGGSLRLSCAASGSTFLYYAMGWYRQAPRKESELVATITDGGSTNYSDSVKGRFTISRDNAKNTVDLQMNSLKPEDTAVYYCAKRQWRPTYRYGYWGQGTQVTVSS” here?
A: low polyreactivity

Q: Which “polyreactivity (PSR sort gate)” value does the source give for “QVQLVESGGGLVQAGGSLRLSCAASGSTFLYYAMGWYRQEPGKEREFVASISGSGGSTNYADSVKGRFTISRDNAKNTVYLQMNSLKPEDTAVYYCAKEYVTEFQGYYYWGQGTQVTVSS” here?
A: low polyreactivity

Q: For “QVQLVESGGGLVQAGGSLRLSCAASGSTFNANAMGWYRQAPGKERELVAGISSGGSTYADSVKGRFTISRDNAKNTVYLKMNSLKPEDTAVYYCNADFYSWYPTFYWYDYWGQGTQVTVSS”, which “polyreactivity (PSR sort gate)” value is on record?
A: high polyreactivity

Q: For “QVQLVESGGGLVQAGGSLRLSCAASGSTFNAYAMGWYRQAPGKERELVADISFSGGTYYADSVKGRFTISRDNAKNTVYLQMNSLKPEDTAVYYCSAESRWRSSAGGYYYWGQGTQVTVSS”, which “polyreactivity (PSR sort gate)” value is on record?
A: low polyreactivity

Q: With “QVQLVESGGGLVQAGGSLRLSCAASGSTFNDYVMGWYRQAPGKERELVAAISRSGGSTYYADSVKGRFTISRDNAKNTVYLQMNSLNPEDTAVYYCAAASPGPWRYDYWGQGTQVTVSS” as the sequence, how does the “polyreactivity (PSR sort gate)” value read?
A: high polyreactivity

Q: Which “polyreactivity (PSR sort gate)” value does the source give for “QVQLVESGGGLVQAGGSLRLSCAASGSTFNGYAMGWSRQAPGKERELVAAISWSSGSTYYADSVKGRFTISRDNAKNTVYLQMNSLKPEDTAVYYCNKYYGYHKIKEYDYWGQGTQVTVSS” here?
A: high polyreactivity

Q: With “QVQLVESGGGLVQAGGSLRLSCAASGSTFNGYAMGWYRQAPGKERELVAAISKRGGSTYYADSVKGRFTISRDNEKNTVYLQMNSLKPEDTAVYYCAARNPTQYLMDYWGQGTQVTVSS” as the sequence, how does the “polyreactivity (PSR sort gate)” value read?
A: high polyreactivity

Q: For “QVQLVESGGGLVQAGGSLRLSCAASGSTFNGYAMGWYRQAPGKERELVAAISSDGGSTYYADSVKGRFTISRDNAKNTVYLQMNSLKPEYTAVYYCAALVYVSGYGYYYWGQGTQVTVSS”, which “polyreactivity (PSR sort gate)” value is on record?
A: high polyreactivity

Q: Which “polyreactivity (PSR sort gate)” value does the source give for “QVQLVESGGGLVQAGGSLRLSCAASGSTFNGYAMGWYRQAPGKERELVAAISWRGGSTYYADSVKGRFTISRDNAKNTVYLQMNSLKPEDTAVYYCNTLLYYGHRYYYWGQGTQVTVSS” here?
A: high polyreactivity
